In patent US20240066131A1 (Protagonist Therapeutics, Inc., priority 2020, published 2024):
Starred links: 1 amine or outer side, 2 acyl side, 3 side chain; linkers in the order of their positions; H or OH if unused. Positions of bridges follow the written chain, without caps; N, C: chain ends. Non-standard residues stand in square brackets, D forms with d. Groups on a side chain read outwards from the residue. No end group written: not given here. *: point of attachment. N_Butyl_Phe = CCCCN([C@@H](Cc1ccccc1)C(=O)[*:2])[*:1]; C18 diacid = O=C(O)CCCCCCCCCCCCCCCCC(=O)*; Dip = N[C@H](C(=O)O)C(c1ccccc1)c1ccccc1; γGlu = O=C(O)[C@H](CCC(=O)[*:2])N[*:1]; Palmitoyl = CCCCCCCCCCCCCCCC(=O)*; β3hF = N[C@H](CC(=O)O)Cc1ccccc1; Isovaleryl = CC(C)CC(=O)*; Dap = NC[C@H](N)C(=O)O; AEEA = NCCOCCOCC(=O)O; Ahx = NCCCCCC(=O)O; NHPr = CCCN*

T1: human ferroportin (SLC40A1) fused in frame with GFP, stably expressed in HEK293 cells (human, UniProt Q9NP59 1-571)
T1 sequence (looked up): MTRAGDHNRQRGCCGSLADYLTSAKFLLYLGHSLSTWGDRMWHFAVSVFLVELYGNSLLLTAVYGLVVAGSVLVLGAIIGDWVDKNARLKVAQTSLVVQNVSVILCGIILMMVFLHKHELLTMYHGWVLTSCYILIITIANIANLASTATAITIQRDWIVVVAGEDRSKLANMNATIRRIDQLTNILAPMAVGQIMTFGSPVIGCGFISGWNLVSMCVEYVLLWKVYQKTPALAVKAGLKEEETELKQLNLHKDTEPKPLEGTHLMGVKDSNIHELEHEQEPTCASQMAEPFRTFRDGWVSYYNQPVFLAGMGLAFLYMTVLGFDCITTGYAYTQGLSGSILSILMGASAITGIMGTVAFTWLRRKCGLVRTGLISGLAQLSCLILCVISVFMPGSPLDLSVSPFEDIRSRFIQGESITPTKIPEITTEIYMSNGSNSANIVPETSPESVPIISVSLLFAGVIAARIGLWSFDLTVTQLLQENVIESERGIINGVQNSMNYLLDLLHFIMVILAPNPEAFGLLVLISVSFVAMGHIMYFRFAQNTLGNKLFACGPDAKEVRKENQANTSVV


Target: T1, human ferroportin (SLC40A1) fused in …
Test: cell-based or functional assay

| Binder | FPN IC50 [nM] |
| --- | --- |
| Isovaleryl-LTH[Dip]K([AEEA-AEEA-γGlu-C18 diacid])[N_Butyl_Phe] [Isovaleric Acid-L-T-H-[Dpa]-[Lys(1PEG2_1PEG2_IsoGlu_C18_Diacid)]-N_Butyl Phe] | > 3000 |
| XETHXPXX (not fully specified; N-term Isovaleric Acid; Dpa4; d[Lys(1PEG2_1PEG2_Ahx_C18_Diacid)]6; bhPhe7; C-term NH2) [Isovaleric Acid-E-T-H-[Dpa]-P-d[Lys(1PEG2_1PEG2_Ahx_C18_Diacid)]-[bhPhe]-NH2] | 86.8 |
| Isovaleryl-LTH[Dip]PLIK([Ahx-Palmitoyl])L-NH2 (SMILES CCCCCCCCCCCCCCCC(=O)NCCCCCC(=O)NCCCC[C@H](NC(=O)[C@@H](NC(=O)[C@H](CC(C)C)NC(=O)[C@@H]1CCCN1C(=O)[C@@H](NC(=O)[C@H](Cc1c[nH]cn1)NC(=O)[C@@H](NC(=O)[C@H](CC(C)C)NC(=O)CC(C)C)[C@@H](C)O)C(c1ccccc1)c1ccccc1)[C@@H](C)CC)C(=O)N[C@@H](CC(C)C)C(N)=O) [Isovaleric Acid-L-T-H-[Dpa]-P-L-I-[Lys(Ahx_Palm)]-L-NH2] | 342 |
| Isovaleryl-LTH[Dip]PK([Ahx-Palmitoyl])[N_Ethyl_Phe] [Isovaleric Acid-L-T-H-[Dpa]-P-[Lys(Ahx_Palm)]-N_Ethyl_Phe] | 18.3 |
| XETHXPXX (N-term Isovaleric Acid; Dpa4; Lys(1PEG2_1PEG2_IsoGlu_C18_Diacid)6; bhPhe7; C-term NH2) [Isovaleric Acid-E-T-H-[Dpa]-P-[Lys(1PEG2_1PEG2_IsoGlu_C18_Diacid)]-[bhPhe]-NH2] | 1690 |
| Isovaleryl-LTH[Dip]K([AEEA-AEEA-γGlu-C18 diacid])-Benzyl_Amine [Isovaleric Acid-L-T-H-[Dpa]-[Lys(1PEG2_1PEG2_IsoGlu_C18_Diacid)]-Benzyl_Amine] | > 3000 |
| XETHXPXX (N-term Isovaleric Acid; Dpa4; Lys(1PEG2_1PEG2_Ahx_C18_Diacid)6; bhPhe7; C-term NH2) [Isovaleric Acid-E-T-H-[Dpa]-P-[Lys(1PEG2_1PEG2_Ahx_C18_Diacid)]-[bhPhe]-NH2] | 367 |
| Isovaleryl-LTH[Dip]P[dK]([AEEA-AEEA-γGlu-C18 diacid])[β3hF]-NH2 (SMILES CC(C)CC(=O)N[C@@H](CC(C)C)C(=O)N[C@H](C(=O)N[C@@H](Cc1c[nH]cn1)C(=O)N[C@H](C(=O)N1CCC[C@H]1C(=O)N[C@H](CCCCNC(=O)COCCOCCNC(=O)COCCOCCNC(=O)CC[C@H](NC(=O)CCCCCCCCCCCCCCCCC(=O)O)C(=O)O)C(=O)N[C@H](CC(N)=O)Cc1ccccc1)C(c1ccccc1)c1ccccc1)[C@@H](C)O) [Isovaleric Acid-L-T-H-[Dpa]-P-d[Lys(1PEG2_1PEG2_IsoGlu_C18_Diacid)]-[bhPhe]-NH2] | 394 |
| XETHXPXX (N-term Isovaleric Acid; Dpa4; Lys(1PEG2_1PEG2_IsoGlu_C18_Diacid)6; C-term N_Butyl_Phe) [Isovaleric Acid-E-T-H-[Dpa]-P-[Lys(1PEG2_1PEG2_IsoGlu_C18_Diacid)]-N_Butyl_Phe] | 448 |
| Isovaleryl-ETHFP[Dap]IK([AEEA-AEEA-γGlu-C18 diacid])FEPRSKGDK-NH2 (lactam 6-16; SMILES CC[C@H](C)[C@@H]1NC(=O)[C@@H](NC(=O)[C@@H]2CCCN2C(=O)[C@H](Cc2ccccc2)NC(=O)[C@H](Cc2c[nH]cn2)NC(=O)[C@@H](NC(=O)[C@H](CCC(=O)O)NC(=O)CC(C)C)[C@@H](C)O)CNC(=O)C[C@@H](C(=O)N[C@@H](CCCCN)C(N)=O)NC(=O)CNC(=O)[C@H](CCCCN)NC(=O)[C@H](CO)NC(=O)[C@H](CCCNC(=N)N)NC(=O)[C@@H]2CCCN2C(=O)[C@H](CCC(=O)O)NC(=O)[C@H](Cc2ccccc2)NC(=O)[C@H](CCCCNC(=O)COCCOCCNC(=O)COCCOCCNC(=O)CC[C@H](NC(=O)CCCCCCCCCCCCCCCCC(=O)O)C(=O)O)NC1=O) [Isovaleric Acid-E-T-H-F-P-Dap-I-[Lys(1PEG2_1PEG2_IsoGlu_C18_Diacid)]-F-E-P-R-S-K-G-D-K-NH2] | 6110 |
| Isovaleryl-LTH[Dip]PK([Ahx-Palmitoyl])-NHPr [Isovaleric Acid-L-T-H-[Dpa]-P-[Lys(Ahx_Palm)]-Propyl_Amine] | 87.3 |
| Isovaleryl-LTH[Dip]PK([Ahx-Palmitoyl])[N_Butyl_Phe] [Isovaleric Acid-L-T-H-[Dpa]-P-[Lys(Ahx_Palm)]-N_Butyl_Phe] | 74 |
| Isovaleryl-LTH[Dip]K([AEEA-AEEA-γGlu-C18 diacid])[N_Ethyl_Phe] [Isovaleric Acid-L-T-H-[Dpa]-[Lys(1PEG2_1PEG2 IsoGlu_C18_Diacid)]-N_Ethyl Phe] | > 3000 |
| Isovaleryl-LTH[Dip]K([AEEA-AEEA-γGlu-C18 diacid])-NHPr (SMILES CCCNC(=O)[C@H](CCCCNC(=O)COCCOCCNC(=O)COCCOCCNC(=O)CC[C@H](NC(=O)CCCCCCCCCCCCCCCCC(=O)O)C(=O)O)NC(=O)[C@@H](NC(=O)[C@H](Cc1c[nH]cn1)NC(=O)[C@@H](NC(=O)[C@H](CC(C)C)NC(=O)CC(C)C)[C@@H](C)O)C(c1ccccc1)c1ccccc1) [Isovaleric Acid-L-T-H-[Dpa]-[Lys(1PEG2_1PEG2_IsoGlu_C18_Diacid)]-Propyl_Amine] | > 3000 |
| Isovaleryl-ETHFP[Dap]IK([AEEA-AEEA-γGlu-C18 diacid])FEPRSKGEK-NH2 (lactam 6-16; SMILES CC[C@H](C)[C@@H]1NC(=O)[C@@H](NC(=O)[C@@H]2CCCN2C(=O)[C@H](Cc2ccccc2)NC(=O)[C@H](Cc2c[nH]cn2)NC(=O)[C@@H](NC(=O)[C@H](CCC(=O)O)NC(=O)CC(C)C)[C@@H](C)O)CNC(=O)CC[C@@H](C(=O)N[C@@H](CCCCN)C(N)=O)NC(=O)CNC(=O)[C@H](CCCCN)NC(=O)[C@H](CO)NC(=O)[C@H](CCCNC(=N)N)NC(=O)[C@@H]2CCCN2C(=O)[C@H](CCC(=O)O)NC(=O)[C@H](Cc2ccccc2)NC(=O)[C@H](CCCCNC(=O)COCCOCCNC(=O)COCCOCCNC(=O)CC[C@H](NC(=O)CCCCCCCCCCCCCCCCC(=O)O)C(=O)O)NC1=O) [Isovaleric Acid-E-T-H-F-P-Dap-I-[Lys(1PEG2_1PEG2_IsoGlu_C18_Diacid)]-F-E-P-R-S-K-G-E-K-NH2] | > 10000 |
| Isovaleryl-ETHFPDIK([AEEA-AEEA-γGlu-C18 diacid])FEPRSKG[Dap]K-NH2 (lactam 6-16; SMILES CC[C@H](C)[C@@H]1NC(=O)[C@@H](NC(=O)[C@@H]2CCCN2C(=O)[C@H](Cc2ccccc2)NC(=O)[C@H](Cc2c[nH]cn2)NC(=O)[C@@H](NC(=O)[C@H](CCC(=O)O)NC(=O)CC(C)C)[C@@H](C)O)CC(=O)NC[C@@H](C(=O)N[C@@H](CCCCN)C(N)=O)NC(=O)CNC(=O)[C@H](CCCCN)NC(=O)[C@H](CO)NC(=O)[C@H](CCCNC(=N)N)NC(=O)[C@@H]2CCCN2C(=O)[C@H](CCC(=O)O)NC(=O)[C@H](Cc2ccccc2)NC(=O)[C@H](CCCCNC(=O)COCCOCCNC(=O)COCCOCCNC(=O)CC[C@H](NC(=O)CCCCCCCCCCCCCCCCC(=O)O)C(=O)O)NC1=O) [Isovaleric Acid-E-T-H-F-P-D-I-[Lys(1PEG2_1PEG2_IsoGlu_C18_Diacid)]-F-E-P-R-S-K-G-Dap-K-NH2] | > 10000 |

The next lines start with the values.

| FPN IC50 [nM] | Binder |
| --- | --- |
| 169 | Isovaleryl-LTH[Dip]PAIK([Ahx-Palmitoyl])L-NH2 (SMILES CCCCCCCCCCCCCCCC(=O)NCCCCCC(=O)NCCCC[C@H](NC(=O)[C@@H](NC(=O)[C@H](C)NC(=O)[C@@H]1CCCN1C(=O)[C@@H](NC(=O)[C@H](Cc1c[nH]cn1)NC(=O)[C@@H](NC(=O)[C@H](CC(C)C)NC(=O)CC(C)C)[C@@H](C)O)C(c1ccccc1)c1ccccc1)[C@@H](C)CC)C(=O)N[C@@H](CC(C)C)C(N)=O) [Isovaleric Acid-L-T-H-[Dpa]-P-A-I-[Lys(Ahx_Palm)]-L-NH2] |
| 470 | XETHXPXX (N-term Isovaleric Acid; Dpa4; Lys(1PEG2_1PEG2_IsoGlu_C18_Diacid)6; C-term Propyl_Amine) [Isovaleric Acid-E-T-H-[Dpa]-P-[Lys(1PEG2_1PEG2_IsoGlu_C18_Diacid)]-Propyl_Amine] |
| 1490 | XETHXPXX (N-term Isovaleric Acid; Dpa4; d[Lys(1PEG2_1PEG2_IsoGlu_C18_Diacid)]6; bhPhe7; C-term NH2) [Isovaleric Acid-E-T-H-[Dpa]-P-d[Lys(1PEG2_1PEG2_IsoGlu_C18_Diacid)]-[bhPhe]-NH2] |
| 1580 | Isovaleryl-LTH[Dip]PAIK([Ahx-Palmitoyl])[β3hF]-NH2 (SMILES CCCCCCCCCCCCCCCC(=O)NCCCCCC(=O)NCCCC[C@H](NC(=O)[C@@H](NC(=O)[C@H](C)NC(=O)[C@@H]1CCCN1C(=O)[C@@H](NC(=O)[C@H](Cc1c[nH]cn1)NC(=O)[C@@H](NC(=O)[C@H](CC(C)C)NC(=O)CC(C)C)[C@@H](C)O)C(c1ccccc1)c1ccccc1)[C@@H](C)CC)C(=O)N[C@H](CC(N)=O)Cc1ccccc1) [Isovaleric Acid-L-T-H-[Dpa]-P-A-I-[Lys(Ahx_Palm)]-[bhPhe]-NH2] |
| 408 | XETHXPXX (N-term Isovaleric Acid; Dpa4; Lys(1PEG2_1PEG2_IsoGlu_C18_Diacid)6; C-term N_Ethyl_Phe) [Isovaleric Acid-E-T-H-[Dpa]-P-[Lys(1PEG2_1PEG2_IsoGlu_C18_Diacid)]-N_Ethyl_Phe] |
| 1270 | Isovaleryl-LTH[Dip]PLIK([Ahx-Palmitoyl])[β3hF]-NH2 (SMILES CCCCCCCCCCCCCCCC(=O)NCCCCCC(=O)NCCCC[C@H](NC(=O)[C@@H](NC(=O)[C@H](CC(C)C)NC(=O)[C@@H]1CCCN1C(=O)[C@@H](NC(=O)[C@H](Cc1c[nH]cn1)NC(=O)[C@@H](NC(=O)[C@H](CC(C)C)NC(=O)CC(C)C)[C@@H](C)O)C(c1ccccc1)c1ccccc1)[C@@H](C)CC)C(=O)N[C@H](CC(N)=O)Cc1ccccc1) [Isovaleric Acid-L-T-H-[Dpa]-P-L-I-[Lys(Ahx_Palm)]-[bhPhe]-NH2] |
| 482 | Isovaleryl-LTH[Dip]PK([AEEA-AEEA-γGlu-C18 diacid])[β3hF]-NH2 (SMILES CC(C)CC(=O)N[C@@H](CC(C)C)C(=O)N[C@H](C(=O)N[C@@H](Cc1c[nH]cn1)C(=O)N[C@H](C(=O)N1CCC[C@H]1C(=O)N[C@@H](CCCCNC(=O)COCCOCCNC(=O)COCCOCCNC(=O)CC[C@H](NC(=O)CCCCCCCCCCCCCCCCC(=O)O)C(=O)O)C(=O)N[C@H](CC(N)=O)Cc1ccccc1)C(c1ccccc1)c1ccccc1)[C@@H](C)O) [Isovaleric Acid-L-T-H-[Dpa]-P-[Lys(1PEG2_1PEG2_IsoGlu_C18_Diacid)]-[bhPhe]-NH2] |
